Patent US20040156861A1 (US Dept. of Health and Human Services, published 2004)
Like-named read-outs stand apart in the source and are kept apart here.

Assays:
[1] = target: gp100 154-162 epitope-analogue …; test: cell-based or functional assay
[2] = target: gp100 280-288 …; test: cell-based or functional assay
[3] = target: gp100 154-162 epitope …; test: cell-based or functional assay
HLA-A*0201 [4] = target: T1, HLA-A*0201 (human); test: T2 cell HLA-A*0201 stabilization, flow cytometry with mAb BB7.2
T1 construct: also called HLA-A2.1; HLA-A2

[5] = target: Melan-A/MART-1 27-35 epitope-analogue AIGIGLTV (SEQ ID NO: 30); test: cell-based or functional assay
[6] = target: gp100 280-288 …; test: cell-based or functional assay; remark: listed apart in the source
[7] = target: Melan-A/MART-1 27-35 epitope …; test: cell-based or functional assay
HLA-A*0201 [8] = target: T1, HLA-A*0201; test: T2 cell HLA-A*0201 stabilization, flow cytometry with mAb BB7.2; remark: listed apart in the source
Experimental: (§1) Briefly, peptides were diluted from DMSO stocks to various concentrations (final DMSO concentration 0.5%) and were incubated together with 10⁵ T2 cells for 14 hours at 37° C., 5% CO₂ in serum-free Iscoves medium in a volume of 100 ml in the presence of 3 mg/ml human β2-microglobulin (Sigma, St Louis, Mo.). […] The Fluorescence Index is expressed as: (experimental mean fluorescence÷background mean fluorescence)−1.
(§2) ^aBinding of peptides to HLA-A2.1 was analyzed using the processing-defective T2 cell line at the indicated peptide concentrations.

HLA-A*0201 [9] = target: T1, HLA-A*0201; test: decay of cell-surface HLA-A*0201-peptide complexes at 37 C on emetine-pretreated B-LCL, flow cytometry
Experimental: Measurement of MHC-peptide complex stability was performed. […] The cells were then mild-acid treated and subsequently loaded with 200 mM of peptide for 1 hour at room temperature. Thereafter, the cells were washed twice to remove free peptide and were incubated at 37° C. for 0, 2, 4 and 6 hours.

HLA-A*0201 [10] = target: T1, HLA-A*0201; test: competition with 150 nM FL-labeled reference peptide on mild-acid treated HLA-A*0201+ JY B-LCL at 4 C, flow cytometry
Text: Subsequently, the cells were washed, fixed with paraformaldehyde and analyzed by flow cytometry. […] The binding capacity of competitor peptides is expressed as the concentration needed to inhibit 50% of binding of the FL-labeled reference peptide (IC₅₀).

HLA-A*0201 [11] = target: T1, HLA-A*0201; test: T2 cell HLA-A*0201 stabilization, flow cytometry with mAb BB7.2; remark: listed apart in the source
Experimental: as §1, §2

Molecule “T-cell receptor of gp100-reactive TIL 1200 lymphocytes (TCR)” has a peptide titration, sensitization of T2 target cells for lysis by TIL 1200 (FIG. 1) (fold lower concentration than wild type) [1] of 10, a peptide titration, sensitization of T2 target cells for lysis by TIL 1200 (FIG. 2) (fold lower concentration than wild type) [1] of 10 and a % specific lysis by TIL 1200 of T2 target cells preincubated with 1 µM peptide, E:T 20:1 (% specific lysis) [2] of 3. For the same molecule, the % specific lysis by TIL 1200 of T2 target cells preincubated with 1 µM peptide, E:T 20:1 (% specific lysis) [3] was 67.

Molecule “Melan-A/MART-1 27-35 epitope-analogue AIGIGLTV (SEQ ID NO: 30) (peptide)” has a Fluorescence Index (HLA-A*0201 stabilization), 25 µM peptide (HLA-A*0201 [4]) of 1.29 and a Fluorescence Index (HLA-A*0201 stabilization), 50 µM peptide (HLA-A*0201 [4]) of 1.58.

In the case of “T-cell receptor of Melan-A/MART-1 27-35-reactive TIL 1235 lymphocytes (TCR)”, the % specific lysis by TIL 1235 of T2 target cells preincubated with 1 µM peptide, E:T 20:1 (% specific lysis) [5] is reported as 27, the % specific lysis by TIL 1235 of T2 target cells preincubated with 1 µM peptide, E:T 20:1 (% specific lysis) [6] is reported as -1 and the % specific lysis by TIL 1235 of T2 target cells preincubated with 1 µM peptide, E:T 20:1 (% specific lysis) [7] is reported as 40. For the same molecule, the % specific lysis by TIL 1235 of T2 target cells preincubated with 1 µM peptide, E:T 20:1 (% specific lysis) [2] was -3.

With ATWGQYWQV (synthetic; alanine at position 1) [gp100 154-162 epitope-analogue ATWGQYWQV] the “Fluorescence Index (HLA-A*0201 stabilization), 25 µM peptide” value (“Fluorescence Index … 25 µM peptide” below) (HLA-A*0201 [8]) was 1.42 and the “Fluorescence Index (HLA-A*0201 stabilization), 50 µM peptide” value (shortened to “Fluorescence Index … 50 µM peptide”) (HLA-A*0201 [8]) was 1.94.

In the case of KAWGQYWQV (synthetic; alanine at position 2) [gp100 154-162 epitope-analogue KAWGQYWQV], the “Fluorescence Index … 25 µM peptide” value (HLA-A*0201 [8]) is reported as 1.2 and the “Fluorescence Index … 50 µM peptide” value (HLA-A*0201 [8]) is reported as 1.57.

B1: gp100 154-162 epitope-analogue KIWGQYWQV (peptide)
peptide: KIWGQYWQV
notes: synthetic; N-terminal anchor (position 2) replaced by I
For B1, the “Stability (DT 50%)” value (HLA-A*0201 [9]) was > 4 h, the IC50 (HLA-A*0201 [10]) was 600 nM and the “Fluorescence Index … 25 µM peptide” value (HLA-A*0201 [11]) was 1.43. The “Fluorescence Index … 50 µM peptide” value (HLA-A*0201 [11]) was 2.

B2: gp100 154-162 epitope-analogue KLWGQYWQV (peptide)
peptide: KLWGQYWQV
notes: synthetic; N-terminal anchor (position 2) replaced by L
For B2, the “Stability (DT 50%)” value (HLA-A*0201 [9]) was > 4 h, the IC50 (HLA-A*0201 [10]) was 400 nM and the “Fluorescence Index … 25 µM peptide” value (HLA-A*0201 [11]) was 1.55. For the same molecule, the “Fluorescence Index … 50 µM peptide” value (HLA-A*0201 [11]) was 2.19.

B3: gp100 154-162 epitope-analogue KMWGQYWQV (peptide)
peptide: KMWGQYWQV
notes: synthetic; N-terminal anchor (position 2) replaced by M
For B3, the “Fluorescence Index … 25 µM peptide” value (HLA-A*0201 [11]) was 1.28 and the “Fluorescence Index … 50 µM peptide” value (HLA-A*0201 [11]) was 1.73.

KTAGQYWQV (synthetic; alanine at position 3) [gp100 154-162 epitope-analogue KTAGQYWQV] was tested, and the “Fluorescence Index … 25 µM peptide” value (HLA-A*0201 [8]) was 1.02 and the “Fluorescence Index … 50 µM peptide” value (HLA-A*0201 [8]) was 1.17.

KTWGAYWQV (synthetic; alanine at position 5) [gp100 154-162 epitope-analogue KTWGAYWQV] was tested, and the “Fluorescence Index … 25 µM peptide” value (HLA-A*0201 [8]) was 1.25 and the “Fluorescence Index … 50 µM peptide” value (HLA-A*0201 [8]) was 1.59.

KTWGQAWQV (synthetic; alanine at position 6) [gp100 154-162 epitope-analogue KTWGQAWQV] was tested, and the “Fluorescence Index … 25 µM peptide” value (HLA-A*0201 [8]) was 1.15 and the “Fluorescence Index … 50 µM peptide” value (HLA-A*0201 [8]) was 1.42.

For KTWGQYAQV (synthetic; alanine at position 7) [gp100 154-162 epitope-analogue KTWGQYAQV], the “Fluorescence Index … 25 µM peptide” value (HLA-A*0201 [8]) was 1.14 and the “Fluorescence Index … 50 µM peptide” value (HLA-A*0201 [8]) was 1.31.

With KTWGQYWAV (synthetic; alanine at position 8) [gp100 154-162 epitope-analogue KTWGQYWAV] the “Stability (DT 50%)” value (HLA-A*0201 [9]) was > 4 h, the IC50 (HLA-A*0201 [10]) was 500 nM and the “Fluorescence Index … 25 µM peptide” value (HLA-A*0201 [8]) was 1.35. For the same molecule, the “Fluorescence Index … 50 µM peptide” value (HLA-A*0201 [8]) was 1.72.

With KTWGQYWQA (synthetic; alanine at position 9) [gp100 154-162 epitope-analogue KTWGQYWQA] the “Fluorescence Index … 25 µM peptide” value (HLA-A*0201 [8]) was 1.02 and the “Fluorescence Index … 50 µM peptide” value (HLA-A*0201 [8]) was 1.08.

B4: gp100 154-162 epitope-analogue KVWGQYWQV (peptide)
peptide: KVWGQYWQV
notes: synthetic; N-terminal anchor (position 2) replaced by V
In the case of B4, the “Stability (DT 50%)” value (HLA-A*0201 [9]) is reported as > 4 h, the IC50 (HLA-A*0201 [10]) is reported as 800 nM and the “Fluorescence Index … 25 µM peptide” value (HLA-A*0201 [11]) is reported as 1.57. The “Fluorescence Index … 50 µM peptide” value (HLA-A*0201 [11]) was 2.13.
